Experimental data from paper PMC12489471, “A multi-dentate, cooperative interaction between endo- and exo-ribonucleases within the bacterial RNA degradosome” (Nucleic Acids Research, 2025).
Numbering of substitutions follows the chain as printed. Numbers in names are those of the source. Entries after “also recorded” stand apart in the source; their conditions may differ.

T1: PNPase (Escherichia coli, UniProt P05055)
T1 construct: made in house; host or cells: E. coli Evo21(DE3)
T1 sequence (P05055 whole entry, looked up): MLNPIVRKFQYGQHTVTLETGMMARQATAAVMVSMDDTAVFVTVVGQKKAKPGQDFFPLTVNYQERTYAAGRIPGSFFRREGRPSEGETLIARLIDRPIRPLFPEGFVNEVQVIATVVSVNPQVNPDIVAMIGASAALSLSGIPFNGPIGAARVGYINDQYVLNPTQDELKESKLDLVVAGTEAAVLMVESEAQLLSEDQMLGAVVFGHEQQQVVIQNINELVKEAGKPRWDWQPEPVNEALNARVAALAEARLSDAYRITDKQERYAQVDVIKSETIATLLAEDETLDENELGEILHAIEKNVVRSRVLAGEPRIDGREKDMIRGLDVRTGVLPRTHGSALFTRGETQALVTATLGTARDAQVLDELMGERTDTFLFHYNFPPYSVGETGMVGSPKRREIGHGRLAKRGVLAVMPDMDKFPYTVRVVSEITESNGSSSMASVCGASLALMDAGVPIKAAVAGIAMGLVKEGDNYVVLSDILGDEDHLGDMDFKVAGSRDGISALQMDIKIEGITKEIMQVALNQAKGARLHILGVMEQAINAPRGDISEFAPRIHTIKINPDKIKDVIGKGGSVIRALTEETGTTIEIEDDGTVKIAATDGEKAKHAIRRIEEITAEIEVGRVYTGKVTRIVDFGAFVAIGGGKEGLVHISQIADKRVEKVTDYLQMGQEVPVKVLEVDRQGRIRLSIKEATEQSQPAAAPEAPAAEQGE

B1: RNase E 960 – 1061 R1012A: RNase E peptide with point mutation of Arg1012 to alanine (peptide)
chain: VVETAEVVVAEPEVVAQPAAPVVAEVAAEVETVAAVEPEVTVEHNHATAPMTAAPAPEYVPEAPRHSDWQRPTFAFEGKGAAGGHTATHHASAAPARPQPVE
modifications: left off: His6, N-terminal, cleaved | MBP, N-terminal, cleaved | intein, C-terminal, cleaved | choline-binding domain, C-terminal, cleaved
notes: RNase E peptide with point mutation of Arg1012 to alanine
B2: RNase E 960 – 1061 R1056A: RNase E peptide with point mutation of Arg1056 to alanine (peptide)
chain: B1 chain with A53R, R97A
modifications: left off: His6, N-terminal, cleaved | MBP, N-terminal, cleaved | intein, C-terminal, cleaved | choline-binding domain, C-terminal, cleaved
notes: RNase E peptide with point mutation of Arg1056 to alanine
B3: RNase E 583-1061, avi-tagged: avi-tagged RNase E 583-1061 (protein)
chain: SGGEETKPTEQPAPKAEAKPERQQDRRKPRQNNRRDRNERRDTRSERTEGSDNREENRRNRRQAQQQTAETRESRQQAEVTEKARTADEQQAPRRERSRRRNDDKRQAQQEAKALNVEEQSVQETEQEERVRPVQPRRKQRQLNQKVRYEQSVAEEAVVAPVVEETVAAEPIVQEAPAPRTELVKVPLPVVAQTAPEQQEENNADNRDNGGMPRRSRRSPRHLRVSGQRRRRYRDERYPTQSPMPLTVACASPELASGKVWIRYPIVRPQDVQVEEQREQEEVHVQPMVTEVPVAAAIEPVVSAPVVEEVAGVVEAPVQVAEPQPEVVETTHPEVIAAAVTEQPQVITESDVAVAQEVAEQAEPVVEPQEETADIEEVVETAEVVVAEPEVVAQPAAPVVAEVAAEVETVAAVEPEVTVEHNHATAPMTRAPAPEYVPEAPRHSDWQRPTFAFEGKGAAGGHTATHHASAAPARPQPVE
modifications: left off: Avi tag, end not stated, kept
B4: E. coli PNPase core, lacking S1 and KH domains: truncated PNPase lacking the KH and S1 domains (protein)
chain: MLNPIVRKFQYGQHTVTLETGMMARQATAAVMVSMDDTAVFVTVVGQKKAKPGQDFFPLTVNYQERTYAAGRIPGSFFRREGRPSEGETLIARLIDRPIRPLFPEGFVNEVQVIATVVSVNPQVNPDIVAMIGASAALSLSGIPFNGPIGAARVGYINDQYVLNPTQDELKESKLDLVVAGTEAAVLMVESEAQLLSEDQMLGAVVFGHEQQQVVIQNINELVKEAGKPRWDWQPEPVNEALNARVAALAEARLSDAYRITDKQERYAQVDVIKSETIATLLAEDETLDENELGEILHAIEKNVVRSRVLAGEPRIDGREKDMIRGLDVRTGVLPRTHGSALFTRGETQALVTATLGTARDAQVLDELMGERTDTFLFHYNFPPYSVGETGMVGSPKRREIGHGRLAKRGVLAVMPDMDKFPYTVRVVSEITESNGSSSMASVCGASLALMDAGVPIKAAVAGIAMGLVKEGDNYVVLSDILGDEDHLGDMDFKVAGSRDGISALQMDIKIEGITKEIMQVALNQAKGARLHILGVMEQAINAPRGDISEFA
modifications: left off: Mycobacterium xenopi GyrA intein, C-terminal, cleaved | His8, C-terminal, cleaved

Experiments:
[1] = SEC-MALLS molar mass of PNPase and PNPase/RNase E complexes; format: physicochemical
Description: Estimation of molar masses of PNPase and the various PNPase/RNase E complexes was carried out by size-exclusion chromatography with multi-angle laser light scattering (SEC-MALLS). Proteins (100 μl at ∼1 mg/ml concentration) were loaded onto a Superdex 200 10/300 Increase GL SEC column (GE Healthcare) at 0.5 ml/min using an AKTA Purifier FPLC system ([…]). Chromatograms were acquired using UNICORN software (GE Healthcare) at 280 nm. The eluent from the S200 column was analysed with an online DAWN HELEOS II MALLS instrument with eight detectors (Wyatt Technology), followed by an Optilab T-rEX differential refractometer (Wyatt Technology) at 25°C. Data collection and analysis were performed using ASTRA 6 software (Wyatt Technology). Eluted peaks from SEC column were evaluated by Zimm Plot, using a dn/dc value of 0.1850 ml/g. Bovine serum albumin was used as a standard to confirm the system performance (Supplementary Table S1).

PNPase = molecular target: T1, PNPase; format: binding, E. coli; settings: SPR; for Kd (dissociation rate constant, point mutants and wildtype): 25°C, immobilized PNPase C-His, HEPES pH 7.2, 0, 12.5, 25 and 50 nM (point mutants), contact 120 s, dissociation 120 s, duplicates
Description: Briefly, at the N-terminal of the construct, there is an Hisx6 affinity tag that will be used for affinity purification. Following the Hisx6 tag there is an maltose-binding protein (MBP) tag with a TEV cleavage site to maintain solubility of the peptides. Following the MBP tag the gene encoding the peptide is inserted, and is then followed by intein, a self-cleavable tag, followed by a choline-binding domain, which can be used for an extra step of affinity purification. […] After expression, cells were harvested, resuspended in Lysis Buffer 2 (20 mM Tris–HCl, pH 8.0, 80 mM KCl, 300 mM NaCl, 20 mM Imidazole, 0.5 mM TCEP), and lysed with a cell disruptor (Emulsiflex, Avestin). […] After subsequent rounds of washing with Ni Equilibration Buffer supplemented with, respectively, 0.1% Triton-X, 1 M NaCl, and a final wash in Ni Equilibration Buffer, samples were eluted with Ni Elution Buffer (20 mM Tris–HCl, pH 8.0, 300 mM NaCl, 300 mM imidazole, 0.5 mM TCEP). Enriched fractions were then supplemented with 100 mM β-mercaptoethanol to catalyse intein self-cleavage overnight at room temperature. Treated samples were filtered and loaded on an amylose gravity flow column, equilibrated with Amy Equilibration Buffer (20 mM Tris–HCl, pH 8.0, 20 mM NaCl, 20 mM imidazole, 2 mM β-mercaptoethanol) and after washing, His-tagged TEV protease was applied to the resin and incubated at 4°C for 2 h.
PNPase carrying a C-terminal Hisx6 tag was expressed from pExp-cis-Ec_PNP-CHis vector in E. coli Evo21(DE3) cells, induced with 0.4 mM IPTG, at 18°C overnight. After expression, cells were harvested and resuspended in Lysis Buffer 2 (20 mM Tris–HCl, pH 8.0, 80 mM KCl, 300 mM NaCl, 20 mM imidazole, 0.5 mM TCEP), and lysed with a cell disruptor (Emulsiflex, Avestin). […] After subsequent rounds of washing with equilibration buffer supplemented with 0.1% Triton-X, or 1 M NaCl, the sample was eluted with Ni PNPCHis Elution Buffer (20 mM NaH2PO4, pH 8.0, 300 mM NaCl, 300 mM KCl, 5 mM MgCl2, 300 mM imidazole, pH 7.5, 10 mM β-mercaptoethanol). […] Fractions containing PNPase were run through a HiPrep™ 26/10 Desalting Column (GE Healthcare) and buffer exchanged to Q PNPCHis A (20 mM NaH2PO4, pH 8.0, 30 mM NaCl, 10% glycerol, 0.5 mM TCEP).
Interaction measurements were made using a Biacore T200 instrument (GE) at 25°C. PNPase with a 6xHisTag at the CTD was immobilized on a Series S Sensor Chip NTA (Cytiva) to provide a signal of 5 response units (RU). […] For the SPR analysis of the point mutants, binding to PNPase was measured at four different concentrations (0, 12.5, 25, and 50 nM). All concentrations were run in duplicates. The contact time was 60 s, while the dissociation time was 120 s, at a […] flow rate. […] The chip surface was regenerated with 350 mM EDTA in water, following manufacturer's instructions. Data were processed using the manufacturer’s BIAevaluation software.

[2] = Superdex 200, 25°C, buffer A (with 0.01% w/v b-DDM)
[3] = Superdex 200, 25°C, buffer A: 50 mM Tris pH 7.5, 100 mM NaCl, 100 mM KCl, 0.01% w/v b-DDM, 1 mM TCEP
[4] = buffer A (with 0.01% w/v b-DDM)
[5] = buffer A, expected: PNPase trimer, or trimer:RNase E 1:1 ratio
[6] = Superdex 200, 25°C, buffer B: A w/o bDDM
[7] = buffer B, expected: trimer:RNase E 1:1 ratio for complexes
[8] = buffer B: A w/o bDDM, second line in buffer B
[9] = mutant vs wildtype RNase E 960–1061

Molecule | Mw weight-averaged solute molar mass [1, 2] | Mn number-averaged solute molar mass [1, 3] | Polydispersity (Mn/Mw) [1, 4] | Difference Mn from expected mass [1, 5] [%] | Mn number-averaged solute molar mass [1, 6] | Mw weight-averaged solute molar mass [1, 6] | Difference Mn from expected mass [1, 7] [%] | Polydispersity (Mn/Mw) ([1]; buffer B: A w/o bDDM) | Kd (dissociation rate constant, point mutants and wildtype) (PNPase) [s⁻¹] | association rate compared to the wildtype, in words (PNPase; [9]) | dissociation rate (off-rate) compared to the wildtype, in words (PNPase; [9]) | other results
E. coli PNPase: polynucleotide phosphorylase, trimer | 204,900 Da | 204,600 Da | 1.001 | 11.5 |  |  |  |  |  |  |  | 
Bovine serum albumin: standard to confirm the system performance [reference compound] | 63,270 Da | 63,250 Da | 1.000 | 4.8 | 63,300 Da | 63,350 Da | 4.7 | 1.001 |  |  |  | Difference Mn from expected mass ([1]; buffer B, second line in buffer B): 3.8%; Mn number-averaged solute molar mass [1, 8]: 63,900 Da; Mw weight-averaged solute molar mass [1, 8]: 64,200 Da; Polydispersity (Mn/Mw) [1, 8]: 1.005
B1 |  |  |  |  |  |  |  |  | 0.052 | does not significantly affect the KD of the interaction and the association rate | faster off-rate; also recorded: faster dissociation rate | effect on KD / binding compared to the wildtype, in words (PNPase; [9]): does not significantly affect the KD of the interaction
B2 |  |  |  |  |  |  |  |  | 0.045 | ten-fold slower | faster off-rate | KD change compared to the wildtype (PNPase; [9]): roughly 13 fold
B3 |  |  |  |  | 52,930 Da | 53,310 Da | 4.7 | 1.007 |  |  |  | 
B4 | 163,600 Da | 163,300 Da | 1.002 | 8.7 |  |  |  |  |  |  |  | 
